# B1: Azoarcus group I ribozyme (parent)
# chain: GUGCCUUGCGCCGGGAAACCACGCAAGGGAUGGUGUCAAAUUCGGCGAAACCUAAGCGCCCGCCCGGGCGUAUGGCAACGCCGAGCCAAGCUUCGGCGCCUGCGCCGAUGAAGGUGUAGAGACUAGACGGCACCCACCUAAGGCAAACGCUAUGGUGAAGGCAUAGUCCAGGGAGUGGCGAAAGUCACACAAACCGG
# Variants of: B1
# Assay: reverse-splicing fitness (ratio to wild type); higher = more active; in vitro selection; Mg2+ level not given
# Procedure, shortened: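 An in vitro group I ribozyme library with randomized positions was T7-transcribed and gel-purified. In triplicate, 10 pmol RNA in EPPS pH 7.5 was reacted with 50 pmoles of a 30-nt RNA substrate for 1 h at 37 °C across several added MgCl2 levels (1–48 mM), then stopped with EDTA. Products were reverse transcribed from a substrate-complementary primer, PCR-amplified and sequenced (HiSeq 4000). Fitness is a variant's read proportion after selection over that before, normalised to wild type.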
row,Variant,reverse-splicing fitness
1,C82U A111C A120C A145G C169A U176C,0.0232
2,C82U A111C A120C A145G C169A U176G,0.00658
3,C82U A111C A120C A145G C169A U176A,0.0198
4,C82U A111C A120C A145G C150U C169U U176C,0.0139
5,C82U A111C A120C A145G C150U C169U U176A,0.0156
6,C82U A111C A120C A145G C150U C169U U176G,0.00546
7,C82U A111C A120C A145U C150G C169G U176A,0.00759
8,C82U A111C A120C A145U C150G C169G U176C,0.0066
9,C82U A111C A120C A145U C150G C169G U176G,0.00558
10,C82U A111C A120C A145C C150A C169U U176G,0.00596
11,C82U A111C A120C A145C C150A C169U U176C,0.0117
12,C82U A111C A120C A145C C150A C169U U176A,0.0156
13,C82U A111C A120C A145U C150U C169A U176G,0.00665
14,C82U A111C A120C A145U C150U C169A U176A,0.0117
15,C82U A111C A120C A145U C150U C169A U176C,0.00966
16,C82U A111C A120C A145U C169U U176A,0.0127
17,C82U A111C A120C A145U C169U U176C,0.0145
18,C82U A111C A120C A145U C169U U176G,0.0054
19,C82U A111C A120C C150U,0.0192
20,C82U A111C A120C C150G,0.00785
21,C82U A111C A120C C150A,0.00985

row,Variant,reverse-splicing fitness
1,C82U A111C A120C C150A C169A U176G,0.00712
2,C82U A111C A120C C150A C169A U176C,0.0136
3,C82U A111C A120C C150A C169A U176A,0.0186
4,C82U A111C A120C C150G C169U U176A,0.00808
5,C82U A111C A120C C150G C169U U176C,0.0134
6,C82U A111C A120C C150G C169U U176G,0.00565
7,C82U A111C A120C A145U C150G U176G,0.00321
8,C82U A111C A120C A145U C150G U176C,0.00923
9,C82U A111C A120C A145U C150G U176A,0.00578
10,C82U A111C A120C A145C C150U U176C,0.0102
11,C82U A111C A120C A145C C150U U176G,0.0052
12,C82U A111C A120C A145C C150U U176A,0.00836
13,C82G C150G C169G U176A,0.00727
14,C82G C150G C169G U176C,0.00598
15,C82G C150G C169G U176G,0.00511
16,C82G C169G U176G,0.00418
17,C82G C169G U176C,0.0235
18,C82G C169G U176A,0.0155
19,C82U A111C A120C A145C C169A U176A,0.0111
20,C82U A111C A120C A145C C169A U176G,0.00387
21,C82U A111C A120C A145C C169A U176C,0.00743

row,Variant,reverse-splicing fitness
1,C82U A111C A120C C169A U176C,0.0189
2,C82U A111C A120C C169A U176A,0.016
3,C82U A111C A120C C169A U176G,0.00546
4,C82G C150A C169A U176A,0.0213
5,C82G C150A C169A U176C,0.0158
6,C82G C150A C169A U176G,0.00584
7,C82U A111C A120C A145U C150U C169A,0.00892
8,C82U A111C A120C A145U C150U C169G,0.00745
9,C82U A111C A120C A145U C150U C169U,0.0107
10,C82U A111C A120C A145C C150G C169G U176A,0.00861
11,C82U A111C A120C A145C C150G C169G U176C,0.00799
12,C82U A111C A120C A145C C150G C169G U176G,0.00552
13,C82U A111C A120C A145C C150U C169G U176G,0.00566
14,C82U A111C A120C A145C C150U C169G U176A,0.0188
15,C82U A111C A120C A145C C150U C169G U176C,0.0118
16,C82G C150U C169G,0.0104
17,C82G C150U C169A,0.0106
18,C82G C150U C169U,0.0143
19,C82U A111C A120C C150U C169A U176A,0.0151
20,C82U A111C A120C C150U C169A U176C,0.0151
21,C82U A111C A120C C150U C169A U176G,0.00672

row,Variant,reverse-splicing fitness
1,C82U A111C A120C C169G,0.00813
2,C82U A111C A120C C169A,0.00788
3,C82U A111C A120C C169U,0.0127
4,C82U A111C A120C A145G C169G U176A,0.0195
5,C82U A111C A120C A145G C169G U176C,0.0254
6,C82U A111C A120C A145G C169G U176G,0.0058
7,C82U A111C A120C A145G C150G C169A,0.0079
8,C82U A111C A120C A145G C150G C169G,0.00708
9,C82U A111C A120C A145G C150G C169U,0.00816
10,C82U A111C A120C A145U C150U U176C,0.0144
11,C82U A111C A120C A145U C150U U176G,0.00604
12,C82U A111C A120C A145U C150U U176A,0.0105
13,C82G C150G C169U,0.00971
14,C82G C150G C169G,0.00811
15,C82G C150G C169A,0.00919
16,C82U A111C A120C A145G C150A C169U U176A,0.0176
17,C82U A111C A120C A145G C150A C169U U176G,0.00639
18,C82U A111C A120C A145G C150A C169U U176C,0.0172
19,C82G C169A U176C,0.0165
20,C82G C169A U176A,0.0146
21,C82G C169A U176G,0.00463

# — the RNAGym collection of RNA variant scans (doi:10.1093/molbev/msab373)
